In article PMC3143253:
pKd: −log10 of the molar value. Where two headings read alike, the source gives them in different places.

Assays:
[1] = molecular target: IAEDANS-labeled CaM-K75C (UniProt P0DP23); assay: other fluorescence titration
[2] = molecular target: calmodulin (UniProt P0DP23); assay: ITC
[3] = molecular target: IAEDANS-labeled CaM-K75C (UniProt P0DP23); assay: other fluorescence titration; remark: listed apart in the source
[4] = molecular target: TMR-conjugated CLS-S329C, reconstituted in liposomes (human); assay: other fluorescence titration

Row | pKd [1] | Ka [2] [M⁻¹] | pKd [2] | dH [2] [kcal/mol] | stoichiometry N [2] | pKd [3] | pKd [4] | Substance
1 | 5.68 | 204000 | 5.31 | -0.77 | 0.92 | 5.60 | – | ARR18 peptide (entire cytoplasmic domain of human L-selectin)
2 | – | – | – | – | – | – | 5.77 | calmodulin (from UniProt P0DP23 1-149) (natural protein)
